In data set [1] the test system is HeLa Kyoto. The data set is described as follows: solubility in G1/S (NP-40 vs SDS abundance) (log2 ratio); higher = more soluble. The note with it: cell cycle stage: G1/S.
For data set [2], the system named is HeLa Kyoto. The data set is described as follows: melting temperature (median over replicates), in situ; higher = more thermally stable.
Data set [3] relates to HeLa Kyoto. The data set is described as follows: solubility change mitosis vs G1/S (difference of NP-40 vs SDS log2 ratios) (log2 ratio difference); higher = more soluble in mitosis.
Data set [4] has as its system HeLa Kyoto. Description: thermal stability score vs G1/S (z-score of summed log2 fold changes over temperatures); higher = more thermally stable than in G1/S.
Setting [5] is: cell cycle stage: early G1 (4.5 h after nocodazole release).
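For melting temperature (median over replicates), in situ in this document: HeLa Kyoto cells synchronized by double thymidine or nocodazole block, proteins quantified by TMT10plex mass spectrometry, three independent biological replicates.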
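For solubility change mitosis vs G1/S (difference of NP-40 vs SDS log2 ratios) in this document: synchronized HeLa Kyoto cells (double thymidine block for G1/S, nocodazole release for mitosis), protein amounts in NP-40 versus SDS lysates quantified by mass spectrometry, three biological replicates.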
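For solubility in G1/S (NP-40 vs SDS abundance) in this document: HeLa Kyoto cells arrested at G1/S by double thymidine block, proteins quantified by TMT10plex mass spectrometry in mild NP-40 versus SDS extracts, three biological replicates.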
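For thermal stability score vs G1/S (z-score of summed log2 fold changes over temperatures) in this document: synchronized HeLa Kyoto cells, proteins quantified by TMT10plex mass spectrometry, three biological replicates, mitosis taken 0.5 h after nocodazole release, G1/S directly after double thymidine block.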

For “MELALRRSPVPRWLLLLPLLLGLNAGAVIDWPTEEGKEVWDYVTVRKDAYMFWWLYYATNSCKNFSELPLVMWLQGGPGGSSTGFGNFEEIGPLDSDLKPRKTTWLQAASLLFVDNPVGTGFSYVNGSGAYAKDLAMVASDMMVLLKTFFSCHKEFQTVPFYIFSESYGGKMAAGIGLELYKAIQRGTIKCNFAGVALGDSWISPVDSVLSWGPYLYSMSLLEDKGLAEVSKVAEQVLNAVNKGLYREATELWGKAEMIIEQNTDGVNFYNILTKSTPTSTMESSLEFTQSHLVCLCQRHVRHLQRDALSQLMNGPIRKKLKIIPEDQSWGGQATNVFVNMEEDFMKPVISIVDELLEAGINVTVYNGQLDLIVDTMGQEAWVRKLKWPELPKFSQLKWKALYSDPKSLETSAFVKSYKNLAFYWILKAGHMVPSDQGDMALKMMRLVTQQE [SCPEP1]”, in the data set on HeLa Kyoto [1], the “solubility in G1/S (log2)” value amounted to 0.402. Moreover, the melting temperature is 56.9 °C in the data set on HeLa Kyoto [2] (cell cycle stage: G1/S) and 55.6 °C in the data set with HeLa Kyoto [2] (cell cycle stage: mitosis). For the same sequence, the “solubility change mitosis (log2)” value in the data set on HeLa Kyoto [3] came out at 0.202. Besides, the values for the thermal stability score in the data set on HeLa Kyoto [4] (setting [5]) and in the data set with HeLa Kyoto [4] (cell cycle stage: mitosis) were -2.33 and -0.14, respectively.
“MELQDPKMNGALPSDAVGYRQEREGFLPSRGPAPGSKPVQFMDFEGKTSFGMSVFNLSNAIMGSGILGLAYAMAHTGVIFFLALLLCIALLSSYSIHLLLTCAGIAGIRAYEQLGQRAFGPAGKVVVATVICLHNVGAMSSYLFIIKSELPLVIGTFLYMDPEGDWFLKGNLLIIIVSVLIILPLALMKHLGYLGYTSGLSLTCMLFFLVSVIYKKFQLGCAIGHNETAMESEALVGLPSQGLNSSCEAQMFTVDSQMSYTVPIMAFAFVCHPEVLPIYTELCRPSKRRMQAVANVSIGAMFCMYGLTATFGYLTFYSSVKAEMLHMYSQKDPLILCVRLAVLLAVTLTVPVVLFPIRRALQQLLFPGKAFSWPRHVAIALILLVLVNVLVICVPTIRDIFGVIGSTSAPSLIFILPSIFYLRIVPSEVEPFLSWPKIQALCFGVLGVLFMAVSLGFMFANWATGQSRMSGH [SLC38A5]”: the “solubility in G1/S (log2)” value with HeLa Kyoto [1] was -0.0136. The melting temperature is 56.1 °C in the data set on HeLa Kyoto [2] (cell cycle stage: G1/S) and 53.1 °C with HeLa Kyoto [2] (cell cycle stage: mitosis). For the same sequence, in the data set on HeLa Kyoto [3], the “solubility change mitosis (log2)” value was -0.0437. The thermal stability score with HeLa Kyoto [4] (setting [5]) is -1.85; with HeLa Kyoto [4] (cell cycle stage: mitosis), -3.24.
With “MELRVGNRYRLGRKIGSGSFGDIYLGTDIAAGEEVAIKLECVKTKHPQLHIESKIYKMMQGGVGIPTIRWCGAEGDYNVMVMELLGPSLEDLFNFCSRKFSLKTVLLLADQMISRIEYIHSKNFIHRDVKPDNFLMGLGKKGNLVYIIDFGLAKKYRDARTHQHIPYRENKNLTGTARYASINTHLGIEQSRRDDLESLGYVLMYFNLGSLPWQGLKAATKRQKYERISEKKMSTPIEVLCKGYPSEFATYLNFCRSLRFDDKPDYSYLRQLFRNLFHRQGFSYDYVFDWNMLKFGASRAADDAERERRDREERLRHSRNPATRGLPSTASGRLRGTQEVAPPTPLTPTSHTANTSPRPVSGMERERKVSMRLHRGAPVNISSSDLTGRQDTSRMSTSQIPGRVASSGLQSVVHR [CSNK1D]”, the “solubility in G1/S (log2)” value with HeLa Kyoto [1] was -0.067. Further, the melting temperature worked out at 50.1 °C with HeLa Kyoto [2] (cell cycle stage: G1/S) and 50.9 °C in the data set on HeLa Kyoto [2] (cell cycle stage: mitosis). Besides, in the data set with HeLa Kyoto [3], the “solubility change mitosis (log2)” value was -0.0573. Besides, the figures for the thermal stability score with HeLa Kyoto [4] (setting [5]) and with HeLa Kyoto [4] (cell cycle stage: mitosis) were -0.73 and -0.371, respectively.
Take “MELRVLLCWASLAAALEETLLNTKLETADLKWVTFPQVDGQWEELSGLDEEQHSVRTYEVCDVQRAPGQAHWLRTGWVPRRGAVHVYATLRFTMLECLSLPRAGRSCKETFTVFYYESDADTATALTPAWMENPYIKVDTVAAEHLTRKRPGAEATGKVNVKTLRLGPLSKAGFYLAFQDQGACMALLSLHLFYKKCAQLTVNLTRFPETVPRELVVPVAGSCVVDAVPAPGPSPSLYCREDGQWAEQPVTGCSCAPGFEAAEGNTKCRACAQGTFKPLSGEGSCQPCPANSHSNTIGSAVCQCRVGYFRARTDPRGAPCTTPPSAPRSVVSRLNGSSLHLEWSAPLESGGREDLTYALRCRECRPGGSCAPCGGDLTFDPGPRDLVEPWVVVRGLRPDFTYTFEVTALNGVSSLATGPVPFEPVNVTTDREVPPAVSDIRVTRSSPSSLSLAWAVPRAPSGAVLDYEVKYHEKGAEGPSSVRFLKTSENRAELRGLKRGASYLVQVRARSEAGYGPFGQEHHSQTQLDESEGWREQLALIAGTAVVGVVLVLVVIVVAVLCLRKQSNGREAEYSDKHGQYLIGHGTKVYIDPFTYEDPNEAVREFAKEIDVSYVKIEEVIGAGEFGEVCRGRLKAPGKKESCVAIKTLKGGYTERQRREFLSEASIMGQFEHPNIIRLEGVVTNSMPVMILTEFMENGALDSFLRLNDGQFTVIQLVGMLRGIASGMRYLAEMSYVHRDLAARNILVNSNLVCKVSDFGLSRFLEENSSDPTYTSSLGGKIPIRWTAPEAIAFRKFTSASDAWSYGIVMWEVMSFGERPYWDMSNQDVINAIEQDYRLPPPPDCPTSLHQLMLDCWQKDRNARPRFPQVVSALDKMIRNPASLKIVARENGGASHPLLDQRQPHYSAFGSVGEWLRAIKMGRYEESFAAAGFGSFELVSQISAEDLLRIGVTLAGHQKKILASVQHMKSQAKPGTPGGTGGPAPQY [EPHB4]”: in the data set on HeLa Kyoto [1], the “solubility in G1/S (log2)” value was found to be 0.0967. Besides, the melting temperature is 49.4 °C in the data set with HeLa Kyoto [2] (cell cycle stage: G1/S) and 48.9 °C in the data set with HeLa Kyoto [2] (cell cycle stage: mitosis). Also, in the data set with HeLa Kyoto [3], the “solubility change mitosis (log2)” value is -0.108. For the same sequence, the thermal stability score in the data set with HeLa Kyoto [4] (setting [5]) is 1.38; in the data set with HeLa Kyoto [4] (cell cycle stage: mitosis) it was -0.755.
